In patent US20230038521A1 (INSTITUTE OF SCIENCE TOKYO, published 2023) one finds Kd data, which are given here for two molecules.

Broadly, the Kd is the free concentration of one partner at which half of the binding sites on the other are occupied at equilibrium, for simple one-to-one binding. High values mean lower affinity, low ones higher affinity.

The target in this experiment is T1, human HMGB1 protein (human, UniProt P09429 1-215).
T1 construct: Non-denatured protein, used as analyte in SPR and added to neurons in the MARCKS phosphorylation assay; also called High Mobility Group Box 1
T1 sequence (looked up): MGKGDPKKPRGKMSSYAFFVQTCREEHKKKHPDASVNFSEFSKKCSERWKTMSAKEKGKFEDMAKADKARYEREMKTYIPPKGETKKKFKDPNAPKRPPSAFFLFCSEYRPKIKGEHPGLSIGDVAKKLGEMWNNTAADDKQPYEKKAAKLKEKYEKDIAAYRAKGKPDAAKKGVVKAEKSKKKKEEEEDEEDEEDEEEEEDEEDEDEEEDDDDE
In words: SPR, Biacore T100, antibody immobilized on the chip, human HMGB1 as analyte. As to the method: The interaction between the human monoclonal antibody group of the present invention and human HMGB1 protein was compared and examined using SPR. Specifically, using a sensor chip on which each human monoclonal antibody of the present invention was immobilized and human HMGB1 protein as an analyte, the interaction was measured over time with a surface plasmon resonance sensor (“Biacore T100”, manufactured by GE healthcare), to calculate an equilibrium dissociation constant (KD value) as an index of the antibody affinity.
Background: SPR reads the build-up and loss of mass on a sensor chip optically.

B1: monoclonal antibody #213-001 (antibody, human IgG1, kappa, V domains shown)
VH: EVQLVQSGAEVKKPGSSVKVSCKASGGTFSSYAISWVRQAPGQGLEWMGGIIPIFGRANYAQKFQGRVTITADESTSTAYMELSSLRSEDTAVYYCASLVTDYWGQGTLVTVSS
VL: DIQMTQSPSSLSASTGDRVTITCRASQGISSYLAWYQQKPGKAPKLLIYAASTLQSGVPSRFSGSGSGTDFTLTISSLQPEDFATYYCQQANSFPITFGQGTRLEIKT
notes: Human IgG from the ADLib system; kappa light chain
Regarding B1, the dissociation constant Kd worked out at 5.54 nM.

B2: monoclonal antibody #127 (antibody, human IgG1, kappa, V domains shown)
VH: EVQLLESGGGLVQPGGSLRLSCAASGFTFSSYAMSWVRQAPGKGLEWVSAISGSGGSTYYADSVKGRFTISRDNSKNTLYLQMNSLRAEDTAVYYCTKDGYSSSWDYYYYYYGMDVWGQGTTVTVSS
VL: DIQMTQSPSSLSASVGDRVTITCRASQSVSSYLAWYQQKPGKAPKLLIYEASNLQAGVPSRFSGSGSGTDFTLTINSLQPEDFATYYCLQHNSNPLTFGQGTKLEIKT
notes: Human IgG from the ADLib system (DT40 cell library); kappa light chain
On to B2, for which the equilibrium dissociation constant (Kd) is 0.0217 nM.
